Target: T1, bovine cyclin A2 residues 169-430 (bovine, UniProt P30274 169-430)
T1 construct: cyclin A2, bovine, residues 169-430 of UniProt P30274 (equivalent to human cyclin A residues 171-432, UniProt P20248)
Experiment: cryo-EM structure; purified pY15pT160CDK2, cyclin A and CDC25A(C431S) mixed 1:1.5:2, 1 hr on ice, gel filtration (Superdex S200) in 40 mM HEPES, 200 mM NaCl, 1 mM DTT, pH 7.4; grids with CHAPS; 2.7 Å
Conditions: both partners purified

T1 sequence (P30274 169-430): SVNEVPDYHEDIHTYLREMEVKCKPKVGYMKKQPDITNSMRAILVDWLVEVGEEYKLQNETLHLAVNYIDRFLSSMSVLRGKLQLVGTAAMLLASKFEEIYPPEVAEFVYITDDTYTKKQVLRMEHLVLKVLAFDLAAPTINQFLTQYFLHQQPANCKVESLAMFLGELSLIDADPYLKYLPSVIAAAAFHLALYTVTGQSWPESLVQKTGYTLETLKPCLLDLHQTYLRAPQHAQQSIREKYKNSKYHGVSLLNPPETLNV

B1: human CDC25A residues 335-524 (catalytic domain and C-terminal tail), Cys431Ser (domain or fragment, UniProt P30304 335-524, looked up)
chain: RDLIGDFSKGYLFHTVAGKHQDLKYISPEIMASVLNGKFANLIKEFVIIDCRYPYEYEGGHIKGAVNLHMEEEVEDFLLKKPIVPTDGKRVIVVFHSEFSSERGPRMCRYVRERDRLGNEYPKLHYPELYVLKGGYKEFFMKCQSYCEPPSYRPMHHEDFKEDLKKFRTKSRTWAGEKSKREMYSRLKKL
notes: Form used for cryo-EM and HDX-MS; also called CDC25A(C431S); CDC25A(Cys431Ser)
binding result: binds

— publication PMC11316097 (Nature Communications, 2024)
